# B1: mouse ovostatin homolog (natural protein, mouse (endogenous in immature mouse ULF), UniProt Q3UU35 20-1456, looked up)
# chain: AEPRYILWVSSVVQRFSSEKACLHLLNLNESVSLSVTLEYDGSSTTIFDQPVDEGNFYACADFKVSQMSSEQLAFVALLVQGNTLKISERRSVAIAAEENATFVQTDTPVHKPGDTVHFRVVTLNIWLKPVDDLYPLITVQDPQSNVIFQWINVTTFRNITQLSFQLTPEPILGDYTIVIKTQSGTTVMDHFTVNRDVLPKFEVELTAPETITIADSQFQMVTCAKYTYGQPVQGKAQIKVCRELFSPAHCESNENEICEQFTVQLKDGCASHIINTKVFQLDRSGLFMTLNVNEVVTESGTGVQMSKTHSVFITSVLGTVSFENMDPFYRRGITYFGTLKFSGPNNTPLVDKLLQLELDGKPVGNYTTDENGEARFSINTSEIFGAQISLKAVYVRPRSCHRSSWLSPEYLDAYFSASRFYSQTSSFTKIILEPKQLPCDQEKMFSVLYSLNPEAYKEASDVTFFYLVMVRGGISRSGQKQVRVQAWNGNFSFPISINADLAPSADLFVYTLHPSGEIVADNVRLQIEKCFKNKVSINFSRDKDLPGSNTSVHLQAAPDSFCALRAVDKSALLLNHGQEMTPESVYFTLPYIHQYGYFYNGLNLDDQQAEPCIPQKDLFYNGLYYTPTGNIWDGDLSNLLSNMGLKIFTNLHYRKPEVCSSQENQPLLRTFDHPNERIMMYGGGAPPSSAFHDSVDSISHAKVAIKETVRTNFPRTWIWNLVSVDSSGTANVSFLVPDTITQWEASAFCVNGNAGFGISPKVSLQISQPFFVEVTSPFSVVRSEQSDMVVTVFNYLTTCVEISVQLEASENYEASINTQRNTDSEVLQAGEQKTYVWTIIPKTLGKVNVTVVATSKQSRACPNDASKEQDVHWKDTVVKTMLVEAEGIEKEATQSFLICPKGTKASKQTLLELPSNVVEGSVRSFVTIVGDILGVAMQNLESLLQMPYGCGEQNIAQLASDVYILDYLKATDQLTEELKSKAQRLLSNGYQNHLSFKNYDGSYDVFCQSNQEGSTWLSALSFKTVEKMKEYIFIEETVPKQTLIWLVKKQKSNGCFRRDEKHVDTAQEGREGDQEDIALTAYVVGVFLEVGLNASFPALRNGLYCLEEAFSNGVTNGYTQAILAYVFALAGKEQQAKSLLSILDKSATKTNNMIYWERDEKPETDNSPSFIPSALSGETEKTCYVLLAVLSQDTQDLDYASKIVQWLAQRMNSHGGFSAMQDTTVCLLALTQYMKLTGSNPQNTITLSSEESEEVFYVNRNKRLLVQHSKVSKGHQQYTVDVEGDGCSFIQATLRYNVPLPKEASGFSLSVKTGKSNSSDEFQTKFELTVTLTYTGARESSVTVLVDVKMLSGFTPVVSSTEELKFNSQVTKTDIKNGHVLFYLENVPKEATSLTFSIEQTNHVANIQPAPVTVYSYEKGEYAFDSYNINSISDSQ
# notes: ovostatin homolog, mouse, NP_001001179.2; predicted subunit 162 kDa; 360 kDa in non-reducing SDS-PAGE, about 700 kDa by gel filtration; In ULF most subunits are seen as an 88 kDa fragment under reducing conditions, only traces as the 162 kDa subunit; also called mOH; 360 kDa protein; source: endogenous, uterine luminal fluid (ULF) of DES-treated immature ICR mice; also partly purified from it …
# Target: the molecule itself
# Assay: SEC + other: non-reducing and reducing SDS-PAGE; about 700 kDa on Sephacryl S-400, about 360 kDa in non-reducing SDS-PAGE, traces of the 162 kDa subunit under reduction; tetramer of two disulfide-linked dimers
protein,measurement,value
B1,stoichiometry N,4

# Reference: publication PMC6428836, “A complex of novel protease inhibitor, ovostatin homolog, with its cognate proteases in immature mice uterine luminal fluid” (Scientific Reports, 2019)
